Experimental data from patent US20250277199, “NOVEL CRISPR-CAS NUCLEASES FROM METAGENOMES” (Brain Biotech AG, published 2025).

Biological target: T1, BMC11 (uncultured bacterium (metagenome))
T1 chain: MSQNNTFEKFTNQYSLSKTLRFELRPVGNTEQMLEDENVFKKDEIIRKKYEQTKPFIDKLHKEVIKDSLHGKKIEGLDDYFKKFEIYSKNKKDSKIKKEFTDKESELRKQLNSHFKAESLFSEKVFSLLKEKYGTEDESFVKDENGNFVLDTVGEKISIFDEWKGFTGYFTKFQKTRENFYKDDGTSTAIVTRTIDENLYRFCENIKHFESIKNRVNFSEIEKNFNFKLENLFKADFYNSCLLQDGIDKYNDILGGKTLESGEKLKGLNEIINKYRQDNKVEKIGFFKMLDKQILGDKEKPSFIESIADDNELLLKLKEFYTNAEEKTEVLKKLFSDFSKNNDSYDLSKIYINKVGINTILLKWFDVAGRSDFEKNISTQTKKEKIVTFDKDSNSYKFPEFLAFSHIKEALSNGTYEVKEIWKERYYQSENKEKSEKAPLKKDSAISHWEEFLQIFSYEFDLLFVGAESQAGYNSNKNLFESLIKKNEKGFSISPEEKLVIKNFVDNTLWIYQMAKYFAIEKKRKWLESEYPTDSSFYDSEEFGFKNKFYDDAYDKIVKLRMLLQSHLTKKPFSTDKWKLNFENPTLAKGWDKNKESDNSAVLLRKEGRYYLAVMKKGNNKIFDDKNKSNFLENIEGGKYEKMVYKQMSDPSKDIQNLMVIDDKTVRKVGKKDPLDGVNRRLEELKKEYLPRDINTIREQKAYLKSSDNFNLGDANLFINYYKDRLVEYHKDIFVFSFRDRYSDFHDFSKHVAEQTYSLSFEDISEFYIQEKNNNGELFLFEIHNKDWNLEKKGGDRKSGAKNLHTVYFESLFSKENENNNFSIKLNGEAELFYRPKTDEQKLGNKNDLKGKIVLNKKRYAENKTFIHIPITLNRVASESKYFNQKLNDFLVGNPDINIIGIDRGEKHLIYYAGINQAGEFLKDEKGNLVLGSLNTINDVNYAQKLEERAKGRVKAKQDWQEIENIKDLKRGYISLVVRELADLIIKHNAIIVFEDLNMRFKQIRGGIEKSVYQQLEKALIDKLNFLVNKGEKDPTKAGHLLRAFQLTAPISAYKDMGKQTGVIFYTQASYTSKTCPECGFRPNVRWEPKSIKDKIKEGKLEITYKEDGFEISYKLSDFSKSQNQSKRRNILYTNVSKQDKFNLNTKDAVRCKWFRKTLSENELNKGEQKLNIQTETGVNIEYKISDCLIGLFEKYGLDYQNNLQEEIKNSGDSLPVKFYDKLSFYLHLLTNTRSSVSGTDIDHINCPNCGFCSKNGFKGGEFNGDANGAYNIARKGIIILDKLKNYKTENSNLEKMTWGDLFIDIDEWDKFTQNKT
Assay: cell_activity; PAM not stated; E. coli depletion, 30 C
Procedure: Overnight grown pre-cultures were diluted into fresh 60 ml LB-Kanamycin (25 μg/ml) (Example 4) or LB-Kanamycin (25μg/ml)/Nourseothricin (50 μg/ml) medium (Example 5) to obtain an optical density at 600 nm (OD600) of 0.06. The inoculated medium was incubated at 30° C. on a horizontal shaker at 250 rpm until the culture reached an optical density at OD600 of 0.2. For induced BMC (NN) nuclease expression, 600 μl 20% L-(+)-arabinose (w/v) was added to the culture at a final concentration of 0.2% (v/v). The cultivation was continued until the culture reached an optical density at OD600 of 0.5. Subsequently 50 ml culture was transferred into one 50 ml conical tube and harvested by centrifugation at 4° C. for 5 min and 4000×g. Pelleted cells were resuspended in 50 ml ultrapure water (ice-cold) and centrifuged at 4° C. for 5 min and 4000×g.
This washing procedure was repeated twice. Washed cells were resuspended in 25 ml 10% (w/w) glycerin and re-centrifuged at 4° C. for 5 min and 4000×g. The pelleted cells were resuspended in 5 ml 10% (w/w) glycerin. After the final centrifugation step at 4° C. for 5 min and 4000×g, the cells were resuspended in 125 μl 10% (w/w) glycerin. Aliquots of 25 μl competent cells were stored at −80° C. until use. For the transformation procedure, aliquots of competent cells were thawed on ice and 50-100 ng plasmid DNA (CRISPR/gRNA-Ec) was added. Prepared cells were electroporated at 1800 V, 25 μF and 200 Ω in 1 mm gap size electroporation cuvettes, using the Bio-Rad Gene Pulser Xcell Electroporation System. Subsequently, 975 μL of NEB® 10-beta/Stable Outgrowth Medium was added immediately after the pulse to the transformed cells. Regeneration was done at 30° C. on a horizontal shaker at 250 rpm. Finally, 25-100 μl of the cell suspension was plated onto selective M9-Glucose agar plates supplemented with Kanamycin (25 μg/ml)/Ampicillin (100 μg/ml) (Example 4) or Kanamycin (25 μg/ml)/Ampicillin (100 μg/ml)/Nourseothrin (50 μg/ml) (Example 5). Growth of transformed E. coli cells on selective agar plates was screened for 48 h at 30° C.
As described above, each of the BMC01, BMC02, BMC03, BMC04, BMC05, BMC07, BMC08, BMC09, BMC10, BMC11, BMC12, BMC13, BMC14, or BMC15 nucleases was co-transformed into E. coli with a gRNA targeting the E. coli malQ gene to visualize a) the activity and b) the DNA targeting efficiency of the BMC nucleases.

B1: malQ gRNA (BMC stem-loop + 24 nt spacer) ; malQ protospacer (ssRNA ; dsDNA)
RNA: GAUUUCUACUAUUGUAGAUGUGGCGGUACGUUGAUGCAUCGCG
DNA 1: GTGGCGGTACGTTGATGCATCGCG
DNA 2: CGCGATGCATCAACGTACCGCCAC
activity: > 99.9 % colony reduction
